Measurements as given in patent publication US20230126400A1 (Alector, published 2023).
Blank lines part the entries; values can stand above or below the binder they belong to. Ends that are not written are not given here. * marks the point of attachment. Biotin = O=C1N[C@H]2[C@H](CS[C@H]2CCCCC(=O)*)N1

Legend:
[1] = target: T1, human MS4A4A ECL1 peptide (amino acid residues 86-98) (human); assay: peptide ELISA
T1 construct: synthetic peptide
T1 peptide: CMASNTYGSNPIS
Method in brief: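 Free or BSA-conjugated peptides were coated at 2 or 10 […] in 0.05M carbonate buffer, pH 9.6, overnight at 4 °C, then blocked 1 h with PBS+0.5% BSA+0.05% Tween20. Antibodies were bound 30 min at room temperature with shaking. TMB was developed 5-10 min, stopped, and absorbance read at 650 nm.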

cynomolgus (cyno) MS4A4A = target: T2, cynomolgus (cyno) MS4A4A (cynomolgus); assay: FACS, HEK293, supernatant
T2 construct: also called cy4A; Cyno 4A

peptide 4A.3 = target: T3, peptide 4A.3 (human); assay: array SPR, peptide on streptavidin chip
T3 construct: 15-mer of human MS4A4A
T3 peptide: Biotin-CMASNTYGSNPISVY
Protocol: (§1) Epitope binding characteristics of anti-MS4A4A antibodies are determined by two complementary approaches. First, a panel of overlapping peptides derived from the extracellular loops (ECLs) of human MS4A4A (SEQ ID NO:1) and human MS4A6A (SEQ ID NO: 291) were synthesized by JPT peptides (Berlin, Germany). These peptides were 15 amino acids in length, each offset by 2 amino acids. The peptides were biotinylated on the N-terminus. […] Anti-MS4A4A antibodies of the present disclosure and commercially-available anti-MS4A4A antibodies were tested for binding to the various linear peptides by Carterra (South San Francisco, Calif., USA) using a proprietary array SPR instrument (MX-96).
(§2) The peptide library was printed onto a streptavidin-coated chip (Xantec SAD50M, Dusseldorf, Germany) using the Continuous Flow Microspotter (CFM). First, the chip was activated with 100 mM MES, pH 5.5, 100 μL EDC (133 mM final), 100 μL of S-NHS (33.3 mM final). The peptide library was immobilized onto the chip at 250 nM per peptide diluted into HBS-EP+buffer (Teknova Cat # H8022) with 1 mg/ml BSA and 1 μg/ml mouse IgG-Biotin. Following immobilization, the chip surface was deactivated with 1M ethanolamine at pH 8.5 for 10 minutes. Hybridoma supernatants and purified anti-MS4A4A antibodies were diluted in HBS-EP+buffer with 1 mg/ml BSA and injected onto the chip. Duplicate measurements for each anti-MS4A4A antibody were taken to ensure reproducibility. Binding characteristics were determined for each peptide-antibody combination, allowing the mapping of the linear peptide region each antibody interacts with.

peptide 4A.4 = target: T4, peptide 4A.4 (human); assay: array SPR, peptide on streptavidin chip
T4 construct: 15-mer of human MS4A4A
T4 peptide: Biotin-ASNTYGSNPISVYIG
Protocol: as §1, §2

peptide 4A.5 = target: T5, peptide 4A.5 (human); assay: array SPR, peptide on streptavidin chip
T5 construct: 15-mer of human MS4A4A
T5 peptide: Biotin-LAFYSFHHPYCNYYG
Protocol: as §1, §2

peptide 4A.6 = target: T6, peptide 4A.6 (human); assay: array SPR, peptide on streptavidin chip
T6 construct: 15-mer of human MS4A4A
T6 peptide: Biotin-FYSFHHPYCNYYGNS
Protocol: as §1, §2

peptide 4A.7 = target: T7, peptide 4A.7 (human); assay: array SPR, peptide on streptavidin chip
T7 construct: 15-mer of human MS4A4A
T7 peptide: Biotin-SFHHPYCNYYGNSNN
Protocol: as §1, §2

peptide 4A.8 = target: T8, peptide 4A.8 (human, cysteine pairing not given here); assay: array SPR, peptide on streptavidin chip
T8 construct: 15-mer of human MS4A4A
T8 peptide: Biotin-HHPYCNYYGNSNNCH
Protocol: as §1, §2

peptide 4A.9 = target: T9, peptide 4A.9 (human, cysteine pairing not given here); assay: array SPR, peptide on streptavidin chip
T9 construct: 15-mer of human MS4A4A
T9 peptide: Biotin-PYCNYYGNSNNCHGT
Protocol: as §1, §2

peptide 4A.10 = target: T10, peptide 4A.10 (human, cysteine pairing not given here); assay: array SPR, peptide on streptavidin chip
T10 construct: 15-mer of human MS4A4A
T10 peptide: Biotin-CNYYGNSNNCHGTMS
Protocol: as §1, §2

peptide 4A.11 = target: T11, peptide 4A.11 (human); assay: array SPR, peptide on streptavidin chip
T11 construct: 15-mer of human MS4A4A
T11 peptide: Biotin-YYGNSNNCHGTMSIL
Protocol: as §1, §2

peptide 4A.12 = target: T12, peptide 4A.12 (human); assay: array SPR, peptide on streptavidin chip
T12 construct: 15-mer of human MS4A4A
T12 peptide: Biotin-GNSNNCHGTMSILMG
Protocol: as §1, §2

peptide 4A.1 = target: T13, peptide 4A.1 (human); assay: array SPR, peptide on streptavidin chip
T13 construct: 15-mer of human MS4A4A
T13 peptide: Biotin-ITMMCMASNTYGSNP
Protocol: as §1, §2

peptide 4A.2 = target: T14, peptide 4A.2 (human); assay: array SPR, peptide on streptavidin chip
T14 construct: 15-mer of human MS4A4A
T14 peptide: Biotin-MMCMASNTYGSNPIS
Protocol: as §1, §2

[2] = target: T15, human MS4A4A ECL2 peptide (amino acid residues 159-179), free (human); assay: array SPR (Carterra MX-96), antibody captured, peptide in solution
T15 construct: synthetic peptide; also called huMS4A4A-ELC2 free-peptide
T15 peptide: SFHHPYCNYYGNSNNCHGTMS
Protocol: Binding kinetic characterization of the anti-MS4A4A antibodies to MS4A4A ECL1 and ECL2 and to MS4A6A ECL1 and ECL2 peptides was performed by Carterra (South San Francisco, Calif.) using a proprietary array Surface Plasmon Resonance (SPR) instrument (MX-96) as follows. Antibodies were captured onto a CMD500D chip (Xantec # SPMX CMD500D) using the Continous Flow Microspotter (CFM). First, the chip was activated with 100 mM MES pH 5.5, 100 μL EDC (133 mM final), 100 μL of S-NHS (33.3 mM final), for 7 minutes. […] Anti-MS4A4A hydridoma supernatant or purified anti-MS4A4A antibodies were diluted in HBS-EP+ buffer (Teknova Cat # H8022) and then printed as duplicates with a 20 minute and a 5-minute print from the same sample solution.
These were then injected on the chip for five minutes, followed by a seven-minute dissociation period at 8 uL per second in a non-regenerative kinetic series. Duplicate measurements for each anti-MS4A4A antibody were taken to ensure reproducibility. Association rates (Kon) and dissociation rates (Koff) were calculated using a single one-to-one Langmuir binding model. The equilibrium dissociation constant (KD) was calculated as the ration of Koff/Kon.

[3] = target: T15, human MS4A4A ECL2 peptide (amino acid …); assay: peptide ELISA, supernatant
human MS4A4A = human MS4A4A (human, UniProt Q96JQ5 1-239); assay: FACS, U937 cells, supernatant; U937 cells overexpressing h4A, ratio over parental U937; parental U937 itself scores +
Protocol: Positive clones identified in Example 22 above were expanded and then rescreened for specificity against U937, K562, and/or 300.19 cells stably overexpressing human MS4A4A or cyno MS4A4A and parental U937, K562, and/or 300.19 cells. These experiments were performed using supernatants from hybridoma clones which had undergone further expansion after initial selection. Briefly, stably transfected cells were labeled with LIVE/DEAD Fixable Aqua Dead Cell Stain Kit (ThermoFisher Scientific Cat#L34957) on ice for 30 minutes. […] 2×10⁵ cells were aliquoted per well in 96-well U-bottom plates and incubated with 50 μl of culture supernatant on ice for 30 minutes. […] Following this secondary incubation, the cells were again washed twice with ice-cold FACS buffer and resuspended in a final volume of 200 μl of FACS buffer. Analysis was performed on a FACS Canto system (BD Biosciences), with gates drawn to exclude dead (Aqua-positive) cells.
The APC ratio was calculated for each antibody as follows. […] For cell lines overexpressing human MS4A4A (h4A) or cyno MS4A4A (cy4A), the ration was calculated by comparing the binding measured to the binding observed on the corresponding parental cell lines.

- binding result [1]: no binding
- Cyno 4A:parental cell ratio (cynomolgus (cyno) MS4A4A): 1.31 ratio
- SPR binding signal (peptide 4A.3): -10.6
- SPR binding signal (peptide 4A.4): -7.9
- SPR binding signal (peptide 4A.5): 383
- SPR binding signal (peptide 4A.6): 486
- SPR binding signal (peptide 4A.7): 446
- SPR binding signal (peptide 4A.8): 309
- SPR binding signal (peptide 4A.9): 225
- SPR binding signal (peptide 4A.10): -4.5
- SPR binding signal (peptide 4A.11): -6.5
- SPR binding signal (peptide 4A.12): -5.2
- SPR binding signal (peptide 4A.1): -11.2
- SPR binding signal (peptide 4A.2): -11.5
- Kd [2]: 31 nM
- koff [2]: 0.0078 s⁻¹
- kon [2]: 250000 M⁻¹ s⁻¹
B1: anti-MS4A4A antibody 4A-21 (murine) (antibody, IgG1, V domains shown)
VH: QIQLVQSGPELKKPGETVKISCKASGYIFTSYGLSWVKQTPGKGLKWMGWINTYSGVPTYANDFKGRFAFSLETSASTTYLRINNLKNDDTATYFCARSLVDYWGQGTPLTVSS
VL: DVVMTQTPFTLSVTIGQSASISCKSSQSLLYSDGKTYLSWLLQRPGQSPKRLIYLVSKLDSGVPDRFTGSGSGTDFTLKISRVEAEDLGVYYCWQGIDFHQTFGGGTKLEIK
notes: murine hybridoma antibody, msIgG1; also called 4A-21 (msIgG1)

- binding result [1]: no binding
- binding result [3]: no binding
- fold increase in MFI (human MS4A4A): > 2 fold
B2: anti-MS4A4A antibody 4A-219 (murine) (antibody, V domains shown)
VH: QVQMKQSGPGLVQPSQSLSITCTVSGFSLTSYGVHWVRQSPGKGLEWLGVIWSGGSTDYNAAFISRLSISKDNSKSQVFFKMNSLQADDTAIYYCVRLYYGYDGFAYWGQGTLVTVSS
VL: DIVMTQSHKFMSTSVGDRVSITCKASQDVSTAVAWYQQKPGQSPKLLIYSASYRYTGVPDRFTGSGSGTDFTFTISSVQAEDLAVYYCQQHYSTPLTFGAGTKLELK
notes: murine hybridoma antibody
